Reference: US8492147B2, “Method of inducing the differentiation of embryonic stem cells into nerve by serum-free suspension culture” (Riken, priority 2004, dated 2013)

Columns and labels:
[1] = test system: Mouse ES cells (EB5 cells); test: SFEB culture with retinoic acid, Bf1+ cells and RT-PCR of rostral/caudal markers; type: cell-based; conditions: RA 0.2 μM after 3-5 days of the culture
Method: Specifically, As ES cells, those cultured for maintenance by conventional culture method without feeder cells supplemented with 1% fetal calf serum, 10% KSR (Knockout Serum Replacement), and LIF were used for SFEB method (see, Neuron, Vol. 28: 31-40 (2000)). Next, after ES cell colonies were subjected to trypsin/EDTA treatment to make single cells, 10 ml of the cells (6×10^4 cells/ml) were seeded on cell non-adhesive culture plastic plate (diameter: 10 cm), and incubated at 37° C., 5% CO2 for five days. As medium, differentiation medium composed of 500 ml of GMEM, 5 ml of 100×NEAA, 5 ml of 100×pyruvate, and 0.5 ml of 1×10^−1 M 2-mercaptoethanol, and 5% KSR (Knockout Serum Replacement). […]
Mouse ES cells (EB5 cells) were subjected to serum-free floating culture by the SFEB method in the same manner as Example 1 for 5 days, after which they were dispersed by trypsin/EDTA treatment, seeded to a cell culture slide coated with poly-D lysine/laminin, and cultured in a differentiation medium (as described above) for 2 days, and then in a GMEM+N2 medium (composition: GMEM+1×N-2 Supplement (manufactured by Gibco, a supply of ×100 concentration was used after dilution), 0.1 mM non-essential amino acid, 1 mM sodium pyruvate, 0.1 mM 2-mercaptoethanol) for 3 days. The finally obtained differentiated cells were analyzed by the fluorescent antibody method using anti-Bf1 antibody. […]

ES cells [2] = test: SDIA method on PA6 cells with BMP4, Math1 and cerebellar granule cell markers; type: cell-based
Description: Although there have been no reports on differentiation induction of ES cells into cerebellar tissue, the present inventors have already reported that Math1 is induced by treating neurons differentiated by the SDIA method with BMP4 (see Proc. Natl. Acad. Sci. USA, 100, 5828-5833). […] Therefore, the Math1-positive cells induced by the SDIA method were postulated not to be cerebellar granule cells, but to be Math1-positive cells of the pons, medulla oblongata, spinal cord and the like.

ES cells [3] = test: BMP treatment of ES cells cultured by SFEB method; type: cell-based
Description: (§1) It is interesting to elucidate what kinds of signaling regulate this difference by analyzing RNA profile for them.

ES cells [4] = test: BMP treatment of ES cells cultured on collagen-coated dish; type: cell-based; conditions: BMP treatment (5 nM)
Description: as §1

Sox1/GFP-mES cells = test: SFEB serum-free floating culture of Sox1/GFP-mES cells, frequency of Sox1-GFP+ cells (FACS); type: cell-based, mouse; conditions: for experiment-to-experiment variation of GFP expression value: initial cell density 5×10^4 cell/ml, without addition varied by about 10-15%
Method: Specifically, As ES cells, those cultured for maintenance by conventional culture method without feeder cells supplemented with 1% fetal calf serum, 10% KSR (Knockout Serum Replacement), and LIF were used for SFEB method (see, Neuron, Vol. 28: 31-40 (2000)). Next, after ES cell colonies were subjected to trypsin/EDTA treatment to make single cells, 10 ml of the cells (6×10^4 cells/ml) were seeded on cell non-adhesive culture plastic plate (diameter: 10 cm), and incubated at 37° C., 5% CO2 for five days. As medium, differentiation medium composed of 500 ml of GMEM, 5 ml of 100×NEAA, 5 ml of 100×pyruvate, and 0.5 ml of 1×10^−1 M 2-mercaptoethanol, and 5% KSR (Knockout Serum Replacement).
Next, For quantitative analysis, mouse ES cells wherein GFP (green fluorescent protein) was knocked in the nerve marker Sox1 gene by homologous recombination (hereinafter abbreviated as Sox1/GFP-mES cells as required; see Nature Biotechnology Vol. 21: 183-186 (2003)) were cultured by the SFEB method. The culture conditions were the same as those for the SFEB method described in 1.1. above except that Sox1/GFP-mES cells were used as the ES cells.
Next, to further improve the efficiency of differentiation into nervous system cells by the SFEB method, the present inventors attempted to determine whether or not the efficiency of differentiation into nervous system cells was improved by inhibiting Nodal, Wnt, and BMP, which are promoters of differentiation into mesodermal cells.
Next, we tested effects of Nodal and Wnt by adding Nodal protein (manufactured by R&D) and Wnt3a protein (manufactured by R&D) to SFEB culture.

ES cells [5] = test: SFEB culture then adhesion culture with Wnt3a, dorsal/ventral telencephalon markers; type: cell-based, mouse
Method: Mouse ES cells (EB5 cells) were subjected to serum-free floating culture by the SFEB method in the same manner as Example 1 for 5 days, after which they were dispersed by trypsin/EDTA treatment, seeded to a cell culture slide coated with poly-D lysine/laminin, and cultured in a differentiation medium (as described above) for 2 days, and then in a GMEM+N2 medium (composition: GMEM+1×N-2 Supplement (manufactured by Gibco, a supply of ×100 concentration was used after dilution), 0.1 mM non-essential amino acid, 1 mM sodium pyruvate, 0.1 mM 2-mercaptoethanol) for 3 days. The finally obtained differentiated cells were analyzed by the fluorescent antibody method using anti-Bf1 antibody. For comparison, neural differentiation from ES cells was performed by the SDIA method, and the cells obtained were analyzed by the fluorescent antibody method in the same manner.
ES cells were cultured by the SFEB method in the same manner as Examples 4 and 6 for 5 days to induce neural differentiation, subsequently dispersed by trypsin/EDTA treatment, seeded to a cell culture slide coated with poly-D lysine/laminin, and cultured. […] In the case of 50 ng/ml Wnt3a, about 75% of the Bf1-positive cells expressed the dorsal marker Pax6, and about 10 percent of them expressed Emx1, a marker of cerebrocortical precursor cells.

EB5 cells = test: SFEB culture, differentiation into retinal precursor cells (Rx, rhodopsin immunostaining); type: cell-based, mouse
Method: EB5 cells were subjected to serum-free floating culture by the SFEB method for 5 days, after which cell clamps as is were seeded to a cell culture slide coated with poly-D lysine/laminin/fibronectin, and cultured while in the KSR-containing differentiation medium for the SFEB method for a total of 8 days. Immunostaining was performed using an internally prepared antibody against Rx, a marker specific for retinal precursor cells; an Rx-positive cell population was identified in about 15-30% of the cell clamps (colonies). By treatment with 5% fetal calf serum or 100 ng/ml activin (manufactured by R&D) or treatment with 3-30 nM Shh during 3 to 5 days after the start of cultivation, the Rx positivity rate of colonies increased to 50% (about 2 times). […] Also, these cells were subjected to adhesion culture for a long time (a total of 14 to 18 days); a plurality of cells positive for the visual cell marker Crx or rhodopsin were identified in 1-5% of the colonies.

[6] = Nodal protein 5 μg/ml, Wnt3a protein 50 ng/ml, during days 0-5 and days 2-5
[7] = Wnt3a 5 ng/ml or 50 ng/ml from Day 6, total 10 days

CC1=C(/C=C/C(C)=C/C=C/C(C)=C/C(=O)O)C(C)(C)CCC1 [RA, retinoic acid]
Bf1+ cells [1]: < 1%

BMP4: BMP signal promoter, manufactured by R&D
Ki67 in the Math1-positive cells (ES cells [2]; 0.5-1 nM BMP4): negative
expression of Pax6, Zic1 in the Math1-positive cells (ES cells [2]; 0.5-1 nM BMP4, most of these cells): did not express
neural differentiation (ES cells [3]): completely suppresses neural differentiation
cell type produced (ES cells [3]; not flk1+ cells): efficiently produces E-cad^+/Oct3/4^− cells
cell type produced (ES cells [4]): induces efficient differentiation into flk1^+ lateral plate mesoderm

B1: Wnt3a: Wnt3a protein (manufactured by R&D), Wnt signal promoter (protein, UniProt P56704 19-352, looked up)
Protein Wnt-3a: SYPIWWSLAVGPQYSSLGSQPILCASIPGLVPKQLRFCRNYVEIMPSVAEGIKIGIQECQHQFRGRRWNCTTVHDSLAIFGPVLDKATRESAFVHAIASAGVAFAVTRSCAEGTAAICGCSSRHQGSPGKGWKWGGCSEDIEFGGMVSREFADARENRPDARSAMNRHNNEAGRQAIASHMHLKCKCHGLSGSCEVKTCWWSQPDFRAIGDFLKDKYDSASEMVVEKHRESRGWVETLRPRYTYFKVPTERDLVYYEASPNFCEPNPETGSFGTRDRTCNVSSHGIDGCDLLCCGRGHNARAERRREKCRCVFHWCCYVSCQECTRVYDVHTCK
frequency of Sox1-GFP+ cells (Sox1/GFP-mES cells; [6]): significantly suppress
Bf1-positive cells expressing Emx1 (ES cells [5]; 50 ng/ml Wnt3a): about 10%
Bf1-positive cells expressing dorsal marker Pax6 (ES cells [5]; 50 ng/ml Wnt3a): about 75%
number of cells positive for both NRx2.1 and Bf1 (ventral telencephalon markers) (ES cells [5]; [7]): decreased remarkably
number of cells positive for both Pax6 and Bf1 (dorsal telencephalon markers) (ES cells [5]; [7]): increased

B2: Dkk1: anti-Wnt reagent (Wnt signal inhibitor), manufactured by R&D Company (protein, UniProt O94907 32-266, looked up)
Dickkopf-related protein 1: TLNSVLNSNAIKNLPPPLGGAAGHPGSAVSAAPGILYPGGNKYQTIDNYQPYPCAEDEECGTDEYCASPTRGGDAGVQICLACRKRRKRCMRHAMCCPGNYCKNGICVSSDQNHFRGEIEETITESFGNDHSTLDGYSRRTTLSSKMYHTKGQEGSVCLRSSDCASGLCCARHFWSKICKPVLKEGQVCTKHRRKGSHGLEIFQRCYCGEGLSCRIQKDHHQASNSSRLHTCQRH
experiment-to-experiment variation of GFP expression value (Sox1/GFP-mES cells): stabilized the value of GFP expression

B3: Nodal protein: Nodal protein (manufactured by R&D), Nodal signal promoter (protein, UniProt Q96S42 238-347, looked up)
Nodal homolog: HHLPDRSQLCRKVKFQVDFNLIGWGSWIIYPKQYNAYRCEGECPNPVGEEFHPTNHAYIQSLLKRYQPHRVPSTCCAPVKTKPLSMLYVDNGRVLLDHHKDMIVEECGCL
frequency of Sox1-GFP+ cells (Sox1/GFP-mES cells; [6]): significantly suppress

B4: activin: TGFβ family protein, Nodal signal promoter, manufactured by R&D (protein, UniProt P08476 311-426, looked up)
Inhibin beta A chain: GLECDGKVNICCKKQFFVSFKDIGWNDWIIAPSGYHANYCEGECPSHIAGTSGSSLSFHSTVINHYRMRGHSPFANLKSCCVPTKLRPMSMLYYDDGQNIIKKDIQNMIVEECGCS
modifications: Inhibin beta A chain activin A assumed
notes: TGFβ family protein, Nodal signal promoter, manufactured by R&D
Rx positivity rate of colonies (EB5 cells; 5% fetal calf serum or 100 ng/ml activin or 3-30 nM Shh during 3 to 5 days, total 8 days, without: about 15-30%): 50%
increase of Rx positivity rate of colonies (EB5 cells; same treatments, versus no treatment): about 2 times

B5: Lefty-A: anti-Nodal reagent (Nodal signal inhibitor), manufactured by R&D Company (protein, UniProt O00292 77-366, looked up)
Left-right determination …: RFSQSFREVAGRFLASEASTHLLVFGMEQRLPPNSELVQAVLRLFQEPVPKAALHRHGRLSPRSAQARVTVEWLRVRDDGSNRTSLIDSRLVSVHESGWKAFDVTEAVNFWQQLSRPRQPLLLQVSVQREHLGPLASGAHKLVRFASQGAPAGLGEPQLELHTLDLRDYGAQGDCDPEAPMTEGTRCCRQEMYIDLQGMKWAKNWVLEPPGFLAYECVGTCQQPPEALAFNWPFLGPRQCIASETASLPMIVSIKEGGRTRPQVVSLPNMRVQKCSCASDGALVPRRLQP
frequency of Sox1-GFP+ cells (Sox1/GFP-mES cells; added on Day 0 of SFEB, 5 μg/ml Lefty-A, 1 μg/ml Dkk1, 1.5 μg/ml BMPRIA-Fc receptobody): evaluate the frequency of Sox1-GFP^+ cells
experiment-to-experiment variation of GFP expression value (Sox1/GFP-mES cells): stabilized the value of GFP expression
